Results on one molecule are retold here after patent publication US20160207995A1 (Genentech, published 2016).

This test addresses T1, human interleukin-4 (IL-4) (human, UniProt P05112 25-153, biotinylated in the competition ELISAs).
T1 construct: Commercial human IL-4 (R&D Systems); also called human IL-4; biotinylated IL-4
T1 sequence: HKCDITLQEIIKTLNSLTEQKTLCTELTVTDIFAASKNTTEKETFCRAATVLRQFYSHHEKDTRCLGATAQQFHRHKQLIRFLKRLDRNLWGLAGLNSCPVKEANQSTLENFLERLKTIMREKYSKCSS
The test is described as follows: SPR Biacore. Background: Surface plasmon resonance follows binding to a sensor surface in real time, without labels.

B1: humanized antibody 19C11-VH3.LA.SV/κ1 graft (anti-IL-4) (antibody, V domains shown)
VH: EVQLVESGGGLVQPGGSLRLSCAASGYTFTDYSMHWVRQAPGKGLEWVVWINTETGEPTYADSVKGRFTISLDNSKNTAYLQMNSLRAEDTAVYYCARGGIFYGMDYWGQGTLVTVSS
VL: DIQMTQSPSSLSASVGDRVTITCKASQSVINDAAWYQQKPGKAPKLLIYYTSHRYTGVPSRFSGSGSGTDFTLTISSLQPEDFATYYCQQDYTSPWTFGQGTKVEIKR
notes: Parental (monospecific) humanized anti-IL-4 antibody; also called parental anti-IL-4 antibody; hu19C11
As for B1, the binding result is on record as “binds”.
